{"source": "patent US20150239983A1", "about": "(University of California, published 2015)"}
{"target": "T1, purified PSCA-Fc (human, UniProt O43653 12-83, limits assumed)", "T1 construct": "not shown: Fc part", "T1 sequence": "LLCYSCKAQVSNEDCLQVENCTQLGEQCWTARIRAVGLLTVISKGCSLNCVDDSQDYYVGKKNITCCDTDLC", "assay": "competition ELISA, wells coated with purified PSCA-Fc; reference is the parental 2B3 minibody", "protocol": "The ranking of the four minibodies was determined by competition ELISA and flow cytometry (FIG. 5).\nCompetition ELISA: PSCA relative binding affinity for the minibodies was determined by competition ELISA in which microtiter plate wells were coated with purified PSCA-Fc (Olafsen T, et al. J. Irrununotherapy 2007: 30:396).", "units": {"improvement of relative affinity compared to the parental": "fold"}}
{"binder": "A11 anti-PSCA minibody (other, also called A11 minibody; variant A11) DIQLTQSPSTLSASMGDRVTITCSASSSVRFIHWYQQKPGKAPKRLIYDTSKLASGVPSRFSGSGSGTDFTLTISSLQPEDFATYYCQQWGSSPFTFGQGTKVEIKGSTSGGGSGGGSGGGGSSEVQLVEYGGGLVQPGGSLRLSCAASGFNIKDYYIHWVRQAPGKGLEWVAWIDPENGDTEFVPKFQGRATMSADTSKNTAYLQMNSLRAEDTAVYYCKTGGFWGQGTLVTVSSEPKSCDKTHTCPPCGGGSSGGGSGGQPREPQVYTLPPSRDELTKNQVSLTCLVKGFYPSDIAVEWESNGQPENNYKTTPPVLDSDGSFFLYSKLTVDKSRWQQGNVFSCSVMHEALHNHYTQKSLSLSPGK", "improvement of relative affinity compared to the parental": 3}
{"binder": "C5 anti-PSCA minibody (other, also called C5 minibody; variant C5) DIQLIQSPSSLSASVGDRVTITCSASSSVRFIHWYQQKPGKAPKRLIYDTSKLASGVPSRFSGSGSGTDFTLTISSLQPEDFATYYCQQWSSSPFTFGQGTKVEIKGSTSGGGSGGGSGGGGSSEVQLVESGGGLVQPGGSLRLSCAASGFNIKDYYIHWVRQAPGKGLEWVAWIDPENGDTEFVPKFQGRATISADTSKNTVYLQMNSLRAKDTAVYYCKTGGFWGQGTLVTVSSEPKSCDKTHTCPPCGGGSSGGGSGGQPREPQVYTLPPSRDELTKNQVSLTCLVKGFYPSDIAVEWESNGQPENNYKTTPPVLDSDGSFFLYSKLTVDKSRWQQGNVFSCSVMHEALHNHYTQKSLSLSPGK", "improvement of relative affinity compared to the parental": 1.9}
{"binder": "A2 anti-PSCA minibody (other, also called A2 minibody; variant A2) DIQLTQSPSSLSASVGDRVTITCSASSSVRFIHWYQQKPGKAPKRLIYDTSKLASGVPSRFSGSGSGTDFTLTISSLQPEDFATYYCQQWGSSPFTFGQGTKVEIKGSTSGGGSGGGSGGGGSEVQLVESGGGLVQPGGSLRLSCAASGFNIKDYYIHWVRQAPGKGLEWVAWIDPEYGDSEFVPKFQGRATMSADTSKNTAYLQMNSLRAEDTAVYYCKTGGFWGRGTLVTVSSEPKSCDKTHTCPPCGGGSSGGGSGGQPREPQVYTLPPSRDELTKNQVSLTCLVKGFYPSDIAVEWESNGQPENNYKTTPPVLDSDGSFFLYSKLTVDKSRWQQGNVFSCSVMHEALHNHYTQKSLSLSPGK", "improvement of relative affinity compared to the parental": 4.4}
